According to EP4707292A2 (The University of North Carolina at Chapel Hill, dated 2026):

B1: C4b-binding protein alpha chain (other)
chain: NCGPPPTLSFAAPMDITLTETRFKTGTTLKYTCLPGYVRSHSTQTLTCNSDGEWVYNTFCIYKRCRHPGELRNGQVEIKTDLSFGSQIEFSCSEGFFLIGSTTSRCEVQDRGVGWSHPLPQCEIVKCKPPPDIRNGRHSGEENFYAYGFSVTYSCDPRFSLLGHASISCTVENETIGVWRPSPPTCEKITCRKPDVSHGEMVSGFGPIYNYKDTIVFKCQKGFVLRGSSVIHCDADSKWNPSPPACEPNSCINLPDIPHASWETYPRPTKEDVYVVGTVLRYRCHPGYKPTTDEPTTVICQKNLRWTPYQGCEALCCPEPKLNNGEITQHRKSRPANHCVYFYGDEISFSCHETSRFSAICQGDGTWSPRTPSCGDICNFPPKIAHGHYKQSSSYSFFKEEIIYECDKGYILVGQAKLSCSYSHWSAPAPQCKALCRKPELVNGRLSVDKDQYVEPENVTIQCDSGYGVVGPQSITCSGNRTWYPEVPKCEWETPEGCEQVLTGKRLMQCLPNPEDVKMALEVYKLSLEIEQLELQRDSARQSTLDKEL
notes: also called C4BPA
B2: Glutathione peroxidase 3 (enzyme)
chain: QSRGQEKSKMDCHGGISGTIYEYGALTIDGEEYIPFKQYAGKYVLFVNVASYUGLTGQYIELNALQEELAPFGLVILGFPCNQFGKQEPGENSEILPTLKYVRPGGGFVPNFQLFEKGDVNGEKEQKFYTFLKNSCPPTSELLGTSDRLFWEPMKVHDIRWNFEKFLVGPDGIPIMRWHHRTTVSNVKMDILSYMRRQAALGVKRK
notes: also called GPX3
B3: Ig gamma-2 chain C region (other)
chain: ASTKGPSVFPLAPCSRSTSESTAALGCLVKDYFPEPVTVSWNSGALTSGVHTFPAVLQSSGLYSLSSVVTVPSSNFGTQTYTCNVDHKPSNTKVDKTVERKCCVECPPCPAPPVAGPSVFLFPPKPKDTLMISRTPEVTCVVVDVSHEDPEVQFNWYVDGVEVHNAKTKPREEQFNSTFRVVSVLTVVHQDWLNGKEYKCKVSNKGLPAPIEKTISKTKGQPREPQVYTLPPSREEMTKNQVSLTCLVKGFYPSDISVEWESNGQPENNYKTTPPMLDSDGSFFLYSKLTVDKSRWQQGNVFSCSVMHEALHNHYTQKSLSLSPGK
notes: also called IGHG2
B4: CD5 antigen-like (other)
chain: SPSGVRLVGGLHRCEGRVEVEQKGQWGTVCDDGWDIKDVAVLCRELGCGAASGTPSGILYEPPAEKEQKVLIQSVSCTGTEDTLAQCEQEEVYDCSHDEDAGASCENPESSFSPVPEGVRLADGPGHCKGRVEVKHQNQWYTVCQTGWSLRAAKVVCRQLGCGRAVLTQKRCNKHAYGRKPIWLSQMSCSGREATLQDCPSGPWGKNTCNHDEDTWVECEDPFDLRLVGGDNLCSGRLEVLHKGVWGSVCDDNWGEKEDQVVCKQLGCGKSLSPSFRDRKCYGPGVGRIWLDNVRCSGEEQSLEQCQHRFWGFHDCTHQEDVAVICSG
notes: also called CD5L
B5: Hemopexin (other)
chain: TPLPPTSAHGNVAEGETKPDPDVTERCSDGWSFDATTLDDNGTMLFFKGEFVWKSHKWDRELISERWKNFPSPVDAAFRQGHNSVFLIKGDKVWVYPPEKKEKGYPKLLQDEFPGIPSPLDAAVECHRGECQAEGVLFFQGDREWFWDLATGTMKERSWPAVGNCSSALRWLGRYYCFQGNQFLRFDPVRGEVPPRYPRDVRDYFMPCPGRGHGHRNGTGHGNSTHHGPEYMRCSPHLVLSALTSDNHGATYAFSGTHYWRLDTSRDGWHSWPIAHQWPQGPSAVDAAFSWEEKLYLVQGTQVYVFLTKGGYTLVSGYPKRLEKEVGTPHGIILDSVDAAFICPGSSRLHIMAGRRLWWLDLKSGAQATWTELPWPHEKVDGALCMEKSLGPNSCSANGPGLYLIHGPNLYCYSDVEKLNAAKALPQPQNVTSLLGCTH
notes: also called HPX
B6: Kininogen-1 (other)
chain: QESQSEEIDCNDKDLFKAVDAALKKYNSQNQSNNQFVLYRITEATKTVGSDTFYSFKYEIKEGDCPVQSGKTWQDCEYKDAAKAATGECTATVGKRSSTKFSVATQTCQITPAEGPVVTAQYDCLGCVHPISTQSPDLEPILRHGIQYFNNNTQHSSLFMLNEVKRAQRQVVAGLNFRITYSIVQTNCSKENFLFLTPDCKSLWNGDTGECTDNAYIDIQLRIASFSQNCDIYPGKDFVQPPTKICVGCPRDIPTNSPELEETLTHTITKLNAENNATFYFKIDNVKKARVQVVAGKKYFIDFVARETTCSKESNEELTESCETKKLGQSLDCNAEVYVVPWEKKIYPTVNCQPLGMISLMKRPPGFSPFRSSRIGEIKEETTVSPPHTSMAPAQDEERDSGKEQGHTRRHDWGHEKQRKHNLGHGHKHERDQGHGHQRGHGLGHGHEQQHGLGHGHKFKLDDDLEHQGGHVLDHGHKHKHGHGHGKHKNKGKKNGKHNGWKTEHLASSSEDSTTPSAQTQEKTEGPTPIPSLAKPGVTVTFSDFQDSDLIATMMPPISPAPIQSDDDWIPDIQIDPNGLSFNPISDFPDTTSPKCPGRPWKSVSEINPTTQMKESYYFDLTDGLS
notes: also called KNG1
B7: Apolipoprotein C-I (other)
chain: TPDVSSALDKLKEFGNTLEDKARELISRIKQSELSAKMREWFSETFQKVKEKLKIDS
notes: also called APOC1
B8: Beta-2-glycoprotein 1 (other)
chain: GRTCPKPDDLPFSTVVPLKTFYEPGEEITYSCKPGYVSRGGMRKFICPLTGLWPINTLKCTPRVCPFAGILENGAVRYTTFEYPNTISFSCNTGFYLNGADSAKCTEEGKWSPELPVCAPIICPPPSIPTFATLRVYKPSAGNNSLYRDTAVFECLPQHAMFGNDTITCTTHGNWTKLPECREVKCPFPSRPDNGFVNYPAKPTLYYKDKATFGCHDGYSLDGPEEIECTKLGNWSAMPSCKASCKVPVKKATVVYQGERVKIQEKFKNGMLHGDKVSFFCKNKEKKCSYTEDAQCIDGTIEVPKCFKEHSSLAFWKTDASDVKPC
notes: also called APOH
B9: Isoform 2 of Ig mu chain C region (other)
chain: GSASAPTLFPLVSCENSPSDTSSVAVGCLAQDFLPDSITFSWKYKNNSDISSTRGFPSVLRGGKYAATSQVLLPSKDVMQGTDEHVVCKVQHPNGNKEKNVPLPVIAELPPKVSVFVPPRDGFFGNPRKSKLICQATGFSPRQIQVSWLREGKQVGSGVTTDQVQAEAKESGPTTYKVTSTLTIKESDWLGQSMFTCRVDHRGLTFQQNASSMCVPDQDTAIRVFAIPPSFASIFLTKSTKLTCLVTDLTTYDSVTISWTRQNGEAVKTHTNISESHPNATFSAVGEASICEDDWNSGERFTCTVTHTDLPSPLKQTISRPKGVALHRPDVYLLPPAREQLNLRESATITCLVTGFSPADVFVQWMQRGQPLSPEKYVTSAPMPEPQAPGRYFAHSILTVSEEEWNTGETYTCVVAHEALPNRVTERTVDKSTEGEVSADEEGFENLWATASTFIVLFLLSLFYSTTVTLFKVK
notes: also called IGHM
B10: Protein fem-1 homolog A (other)
chain: MDLRTAVYNAARDGKLQLLQKLLSGRSREELDELTGEVAGGGTPLLIAARYGHLDVVEYLVDRCGASVEAGGSVHFDGETIEGAPPLWAASAAGHLDVVRSLLRRGASVNRTTRTNSTPLRAACFDGHLEVVRYLVGEHQADLEVANRHGHTCLMISCYKGHREIARYLLEQGAQVNRRSAKGNTALHDCAESGSLEILQLLLGCKARMERDGYGMTPLLAASVTGHTNIVEYLIQEQPGQEQVAGGEAQPGLPQEDPSTSQGCAQPQGAPCCSSSPEEPLNGESYESCCPTSREAAVEALELLGATYVDKKRDLLGALKHWRRAMELRHQGGEYLPKPEPPQLVLAYDYSREVNTTEELEALITDPDEMRMQALLIRERILGPSHPDTSYYIRYRGAVYADSGNFERCIRLWKYALDMQQSNLEPLSPMTASSFLSFAELFSYVLQDRAAKGSLGTQIGFADLMGVLTKGVREVERALQLPREPGDSAQFTKALAIILHLLYLLEKVECTPSQEHLKHQTVYRLLKCAPRGKNGFTPLHMAVDKDTTNVGRYPVGRFPSLHVVKVLLDCGADPDSRDFDNNTPLHIAAQNNCPAIMNALIEAGAHMDATNAFKKTAYELLDEKLLARGTMQPFNYVTLQCLAARALDKNKIPYKGFIPEDLEAFIELH
notes: also called FEM1A
B11: Isoform 2 of Haptoglobin-related protein (other)
chain: MHVCVCVCVCVYMPVCVDACMCCEAGRPAFRSFLFSLCSDLGAVISLLLWGRQLFALYSGNDVTDISDDRFPKPPEIANGYVEHLFRYQCKNYYRLRTEGDGVYTLNDKKQWINKAVGDKLPECEAVCGKPKNPANPVQRILGGHLDAKGSFPWQAKMVSHHNLTTGATLINEQWLLTTAKNLFLNHSENATAKDIAPTLTLYVGKKQLVEIEKVVLHPNYHQVDIGLIKLKQKVLVNERVMPICLPSKNYAEVGRVGYVSGWGQSDNFKLTDHLKYVMLPVADQYDCITHYEGSTCPKWKAPKSPVGVQPILNEHTFCVGMSKYQEDTCYGDAGSAFAVHDLEEDTWYAAGILSFDKSCAVAEYGVYVKVTSIQHWVQKTIAEN
notes: also called HPR
B12: Ig gamma-3 chain C region (other)
chain: ASTKGPSVFPLAPCSRSTSGGTAALGCLVKDYFPEPVTVSWNSGALTSGVHTFPAVLQSSGLYSLSSVVTVPSSSLGTQTYTCNVNHKPSNTKVDKRVELKTPLGDTTHTCPRCPEPKSCDTPPPCPRCPEPKSCDTPPPCPRCPEPKSCDTPPPCPRCPAPELLGGPSVFLFPPKPKDTLMISRTPEVTCVVVDVSHEDPEVQFKWYVDGVEVHNAKTKPREEQYNSTFRVVSVLTVLHQDWLNGKEYKCKVSNKALPAPIEKTISKTKGQPREPQVYTLPPSREEMTKNQVSLTCLVKGFYPSDIAVEWESSGQPENNYNTTPPMLDSDGSFFLYSKLTVDKSRWQQGNIFSCSVMHEALHNRFTQKSLSLSPGK
notes: also called IGHG3

Biological target: T1, Adeno-associated virus 8 (AAV8) virion (adeno-associated virus 8)
T1 construct: Intact virion with packaged vector genome; capsid of 60 subunits (VP1, VP2, VP3, overlapping products of one cap gene); also called AAV8/luc; AAV8 capsid
Test: co-IP/LC-MS/MS, AAV8 + human serum vs PBS control

First: B1
Second: B2
The fold change of the first is lower: 1.53 fold for the first, 2.74 fold for the second.

Going from B3 to B4, the fold change falls from 5.06 fold to 1.23 fold.

Going from B5 to B6, the fold change falls from 30.7 fold to 0.419 fold.

Going from B7 to B8, the fold change rises from 2 fold to 3.43 fold.

Compared with B9, B10 is lower in fold change: 3 fold for the first, 0.264 fold for the second.

Going from B11 to B12, the fold change rises from 2.82 fold to 6.33 fold.

Biological target: T2, Adeno-associated virus 9 (AAV9) virion (adeno-associated virus 9)
T2 construct: Intact virion; capsid of VP1, VP2, VP3; also called AAV9/luc; AAV9 capsid
Test: co-IP with ADK9/LC-MS/MS, AAV9 + human serum vs control

Compared with B1, B2 is higher in “fold change” value: 1.53 fold for the first, 2.74 fold for the second.

Going from B3 to B4, the “fold change” value falls from 5.06 fold to 1.23 fold.

First: B5
Second: B6
The “fold change” value of the first is higher: 30.7 fold for the first, 0.419 fold for the second.

Compared with B7, B8 is higher in “fold change” value: 2 fold for the first, 3.43 fold for the second.

Going from B9 to B10, the “fold change” value falls from 3 fold to 0.264 fold.

First: B11
Second: B12
The “fold change” value of the first is lower: 2.82 fold for the first, 6.33 fold for the second.
